From patent US20210206856A1 (PANDION OPERATIONS, published 2021)

Key:
[1] = target: T1, mouse MAdCAM expressed on cells (mouse, UniProt Q61826 22-405); experiment: cell binding
T1 construct: whole, on cells
T1 sequence (looked up): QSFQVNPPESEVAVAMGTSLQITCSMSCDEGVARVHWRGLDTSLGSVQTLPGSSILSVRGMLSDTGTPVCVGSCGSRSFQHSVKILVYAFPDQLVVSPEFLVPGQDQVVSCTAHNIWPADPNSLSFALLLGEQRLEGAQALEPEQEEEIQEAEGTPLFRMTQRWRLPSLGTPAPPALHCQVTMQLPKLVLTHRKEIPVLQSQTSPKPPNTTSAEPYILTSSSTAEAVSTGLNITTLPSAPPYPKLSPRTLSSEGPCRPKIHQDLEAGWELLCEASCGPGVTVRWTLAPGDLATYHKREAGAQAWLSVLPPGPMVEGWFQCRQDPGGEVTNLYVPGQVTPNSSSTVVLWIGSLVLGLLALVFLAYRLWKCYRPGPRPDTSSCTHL

[2] = target: T2, human MAdCAM expressed on cells (human, UniProt Q13477 19-382); experiment: cell binding
T2 construct: whole, on cells; also called MADCAM1
T2 sequence (looked up): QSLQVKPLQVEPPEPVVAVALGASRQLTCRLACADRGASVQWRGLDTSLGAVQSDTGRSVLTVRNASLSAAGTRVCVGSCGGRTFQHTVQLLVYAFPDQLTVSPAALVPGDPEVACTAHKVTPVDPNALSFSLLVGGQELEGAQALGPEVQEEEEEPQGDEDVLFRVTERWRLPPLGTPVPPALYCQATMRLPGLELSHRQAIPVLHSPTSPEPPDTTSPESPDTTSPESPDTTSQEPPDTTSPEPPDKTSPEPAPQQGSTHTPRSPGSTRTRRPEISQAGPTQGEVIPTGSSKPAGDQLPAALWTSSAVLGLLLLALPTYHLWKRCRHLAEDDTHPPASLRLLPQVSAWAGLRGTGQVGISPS

Binder | binding result [1] | binding result [2]
MAdCAM Antibody Table 2 Clone 63 (antibody, human IgG1, V domains shown) VH: EVQLLESGGGLVQPGGSLRLSCAASGFTFNNYGMNWVRQAPGKGLEWVSRINSDGSSTSYADSVKGRFTISRDNSKNTLYLQMNSLRAEDTAVYYCARGAYYYYYMDVWGQGTLVTVSS VL: EIVMTQSPATLSVSPGERATLSCRASQSVSGSYLAWYQQKPGQAPRLLIYATSSRASGIPARFSGSGSGTEFTLTISSLQSEDFAVYYCQQYYSGLTFGQGTKVEIK | no binding | binds
MAdCAM Antibody Table 2 Clone 66 (antibody, human IgG1, V domains shown) VH: QVQLVQSGAEVKKPGASVKVSCKASGYTFTGHYMHWVRQAPGQGLEWMGIINPSGGSTSYAQKFQGRVTMTRDTSTSTVYMELSSLRSEDTAVYYCARDGAWFGEEYYYGMDVWGQGTTVTVSS VL: DIQMTQSPSSLSASVGDRVTITCRASQGISNWLAWYQQKPGKAPKLLIYDASNLETGVPSRFSGSGSGTDFTLTISSLQPEDFATYYCQQYYSFPLYTFGQGTKVEIK | no binding | binds
MAdCAM Antibody Table 2 Clone 79 (antibody, human IgG1, V domains shown) VH: EVQLLESGGGLVKPGGSLRLSCAASGFTFDDYAMHWVRQAPGKGLEWVASITSSSAFIDYAASVKGRFTISRDDSKNTLYLQMNSLKTEDTAVYYCARERVDWNSYFDLWGRGTLVTVSS VL: EIVMTQSPATLSVSPGERATLSCRASQGISNSYLAWYQQKPGQAPRLLIYGASTRATGIPARFSGSGSGTEFTLTISSLQSEDFAVYYCQQYYTYPPTFGPGTKVDIK | binds | binds
MAdCAM Antibody Table 2 Clone 62 (antibody, human IgG1, V domains shown) VH: QVQLVQSGAEVKKPGASVKVSCKASGYTFTSYDINWVRQAPGQGLEWMGWINPNSGTTGYAQKFQGRVTMTRDTSTSTVYMELSSLRSEDTAVYYCARSPYYYYGMDVWGQGTTVTVSS VL: DIQMTQSPSSLSASVGDRVTITCRASHFISRWVAWYQQKPGKAPKLLIYAASTLQSGVPSRFSGSGSGTDFTLTISSLQPEDFATYYCQQSYSGISFGPGTKVDIK | no binding | binds
MAdCAM Antibody Table 2 Clone 76 (antibody, human IgG1, V domains shown) VH: EVQLLESGGGLVQPGGSLRLSCAASGFTFDDYTMHWVRQAPGKGLEWVSDISGSGGSTYYADSVKGRFTISRDNSKNTLYLQMNSLRAEDTAVYYCAKDVVVAGTPLHFDYWGQGTLVTVSS VL: DIQMTQSPSSLSASVGDRVTITCQASQDISNYLNWYQQKPGKAPKLLIYAASYLQSGVPSRFSGSGSGTDFTLTISSLQPEDFATYYCQQAHNYPITFGQGTRLEIK | binds | binds
MAdCAM Antibody Table 2 Clone 61 (antibody, human IgG1, V domains shown) VH: QVQLVQSGAEVKKPGASVKVSCKASGDTFTGYYIHWVRQAPGQGLEWMGWINPNSGGTNYAQKFQGRVTMTRDTSTSTVYMELSSLRSEDTAVYYCARSGLWLGSYYGMDVWGQGTLVTVSS VL: DIQMTQSPSSLSASVGDRVTITCRASQTISIWLAWYQQKPGKAPKLLIYDASTLQSGVPSRFSGSGSGTDFTLTISSLQPEDFATYYCQQYSSYPLTFGQGTKVEIK | no binding | binds
MAdCAM Antibody Table 2 Clone 67 (antibody, human IgG1, V domains shown) VH: QVQLVQSGAEVKKPGASVKVSCKASGYTFTGYYMHWVRQAPGQGLEWMGMIYPRDGSTSYAQKFQGRVTMTRDTSTSTVYMELSSLRSEDTAVYYCAMTGWGYGMDVWGKGTTVTVSS VL: DIQMTQSPSSLSASVGDRVTITCRASQGINNYLAWYQQKPGKAPKLLIYDASTLQSGVPSRFSGSGSGTDFTLTISSLQPEDFATYYCQQSYSAPPTFGQGTKLEIK | no binding | binds
MAdCAM Antibody Table 2 Clone 70 (antibody, human IgG1, V domains shown) VH: QVQLVQSGAEVKKPGASVKVSCKASGYPFTDYYMHWVRQAPGQGLEWMGWIKPNSGDTEYAQKFQGRVTMTRDTSTSTVYMELSSLRSEDTAVYYCARDRFVGKPDYYYYGMDVWGQGTMVTVSS VL: DIQMTQSPSSLSASVGDRVTITCRASQSISVWLAWYQQKPGKAPKLLIYAASSLQSGVPSRFSGSGSGTDFTLTISSLQPEDFATYYCQQSYDTPYTFGQGTKLEIK | no binding | binds
MAdCAM Antibody Table 2 Clone 75 (antibody, human IgG1, V domains shown) VH: EVQLLESGGGLVQPGGSLRLSCAASGFTFSDFWMHWVRQAPGKGLEWISYISGDSGYTNYADSVKGRFTISRDNSKNTLYLQMNSLRAEDTAVYYCARDRPYYYYMDVWGKGTTVTVSS VL: DIQMTQSPSSLSASVGDRVTITCRASQSVSRSLAWYQQKPGKAPKLLIYAASSLQSGVPSRFSGSGSGTDFTLTISSLQPEDFATYYCQQYKSYPVTFGQGTKVEIK | binds | binds
MAdCAM Antibody Table 2 Clone 78 (antibody, V domains shown) VH: QVQLVQSGAEVKKPGSSVKVSCKASGGTFSSYAISWVRQAPGQGLEWMGWMEPHTGNTRYAQKFQGRVTITADESTSTAYMELSSLRSEDTAVYYCAKGGFSWFDPWGQGTLVTVSS VL: not shown | binds | binds
MAdCAM Antibody Table 2 Clone 64 (antibody, human IgG1, V domains shown) VH: EVQLLESGGGLVQPGGSLRLSCAASGFTFSNSDMNWVRQAPGKGLEWVAHIWNDGSQKYYADSVKGRFTISRDNSKNTLYLQMNSLRAEDTAVYYCARDRTDPGYSSAMDVWGQGTTVTVSS VL: DIQMTQSPSSLSASVGDRVTITCRASQDIRNYLGWYQQKPGKAPKLLIYDASSLETGVPSRFSGSGSGTDFTLTISSLQPEDFATYYCQQATSLPLTFGGGTKVEIK | no binding | binds
MAdCAM Antibody Table 2 Clone 80 (antibody, human IgG1, V domains shown) VH: EVQLLESGGGLVQPGGSLRLSCAASGFTFDDYAMHWVRQAPGKGLEWVSAISGSGGSTYYADSVKGRFTISRDNSKNTLYLQMNSLRAEDTAVYYCAKDLGVVVPAALDYWGQGTTVTVSS VL: DIQMTQSPSSLSASVGDRVTITCQASQDISNHLNWYQQKPGKAPKLLIYDASNLEAGVPSRFSGSGSGTDFTLTISSLQPEDFATYYCQQSYSTPLTFGGGTKVEIK | no binding | binds
MAdCAM Antibody Table 2 Clone 73 (antibody, human IgG1, V domains shown) VH: QVQLVQSGAEVKKPGASVKVSCKASGYTFTSNYVHWVRQAPGQGLEWMGRINPHSGDTSYAQKFQGRVTMTRDTSTSTVYMELSSLRSEDTAVYYCARAGQLWSDWYFDLWGRGTLVTVSS VL: DIQMTQSPSSLSASVGDRVTITCQASQDIRNYLNWYQQKPGKAPKLLIYAATALRTGVPSRFSGSGSGTDFTLTISSLQPEDFATYYCQQSYSHPLTFGQGTKVEIK | no binding | binds
MAdCAM Antibody Table 2 Clone 69 (antibody, human IgG1, V domains shown) VH: QVQLVQSGAEVKKPGASVKVSCKASGYTFTSYYMHWVRQAPGQGLEWMGIIDPSGGSTSYAQKFQGRVTMTRDTSTSTVYMELSSLRSEDTAVYYCAREEWSSGGVGYFDYWGQGTLVTVSS VL: DIQMTQSPSSLSASVGDRVTITCRASQGISSYLAWYQQKPGKAPKLLIYATSSLQTGVPSRFSGSGSGTDFTLTISSLQPEDFATYYCQQTYSIPITFGQGTRLEIK | no binding | binds
MAdCAM Antibody Table 2 Clone 72 (antibody, human IgG1, V domains shown) VH: QVQLVQSGAEVKKPGASVKVSCKASGYTFTSYYMHWVRQAPGQGLEWMGVINPIGGTTTYAQKFQGRVTMTRDTSTSTVYMELSSLRSEDTAVYYCASGAPSYYYYGMDVWGQGTLVTVSS VL: DIQMTQSPSSLSASVGDRVTITCRASQSISSYLNWYQQKPGKAPKLLIYGTSYLATGVPSRFSGSGSGTDFTLTISSLQPEDFATYYCQQSYSTPLTFGQGTKVEIK | no binding | binds
MAdCAM Antibody Table 2 Clone 71 (antibody, human IgG1, V domains shown) VH: QVQLVQSGAEVKKPGASVKVSCKASGYTFTSYYMHWVRQAPGQGLEWMGIINPSGGSTSYAQKFQGRVTMTRDTSTSTVYMELSSLRSEDTAVYYCARDSVAGTGGRYYGMDVWGQGTLVTVSS VL: DIQMTQSPSSLSASVGDRVTITCRASQGISNYFAWYQQKPGKAPKLLIYAASSLQGGVPSRFSGSGSGTDFTLTISSLQPEDFATYYCQQSYSLPYTFGQGTKLEIK | no binding | binds
MAdCAM Antibody Table 2 Clone 77 (antibody, human IgG1, V domains shown) VH: EVQLLESGGGLVQPGGSLRLSCAASEFTFSNAWMSWVRQAPGKGLEWVASISSTSAYIDYADSVKGRFTISRDNSKNTLYLQMNSLRAEDTAVYYCAREVVGATTFDYWGQGTLVTVSS VL: DIQMTQSPSSLSASVGDRVTITCRASQSISTWLAWYQQKPGKAPKLLIYAASSLQSGVPSRFSGSGSGTDFTLTISSLQPEDFATYYCQQANAFPPTFGQGTRLEIK | binds | binds
MAdCAM Antibody Table 2 Clone 68 (antibody, human IgG1, V domains shown) VH: EVQLLESGGGLVQPGGSLRLSCAASGFTFGDYAMSWVRQAPGKGLEWVAVVSYDGTNKYYADSVKGRFTISRDNSKNTLYLQMNSLRAEDTAVYYCAKDICSSTSCYFDLWGRGTLVTVSS VL: DIQMTQSPSSLSASVGDRVTITCRASQNINNYVNWYQQKPGKAPKLLIYDASNLETGVPSRFSGSGSGTDFTLTISSLQPEDFATYYCQQANSFPPTFGQGTRLEIK | no binding | binds
